The assay has as its target T1, human PSGL-1 (human, UniProt Q14242 42-412).
T1 sequence: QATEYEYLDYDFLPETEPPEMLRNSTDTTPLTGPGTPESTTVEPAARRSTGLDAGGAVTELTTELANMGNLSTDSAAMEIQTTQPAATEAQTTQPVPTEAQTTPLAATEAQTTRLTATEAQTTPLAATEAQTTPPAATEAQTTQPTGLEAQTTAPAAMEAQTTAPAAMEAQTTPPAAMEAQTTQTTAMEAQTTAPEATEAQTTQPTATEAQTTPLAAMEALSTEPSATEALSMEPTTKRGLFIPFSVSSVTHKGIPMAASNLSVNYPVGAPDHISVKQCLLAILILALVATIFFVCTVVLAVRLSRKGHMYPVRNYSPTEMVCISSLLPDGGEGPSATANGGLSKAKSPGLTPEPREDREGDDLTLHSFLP
Nature of the assay: cell-based or functional assay.

B1: anti-PSGL-1 antibody 15A7H (antibody, human IgG4 S228P, kappa, V domains shown)
VH: EVQLVESGGGLVQPGGSLRLSCAASGFTFSSFGMHWVRQAPGKGLEWVAYINGGSSTIFYANAVKGRFTISRDNAKNTLYLQMNSLRAEDTAVYYCARYASYGGGAMDYWGQGTLVTVSS
VL: DIQMTQSPSSLSASVGDRVTITCRSSQSIVHNDGNTYFEWYQQKPGKAPKLLIYKVSNRFSGVPSRFSGSGSGTHFTLTISSLQPEDFATYYCFQGSYVPLTFGQGTKVEIKR
For the molecule B1, the “EC50 15A7H, single treatment; apoptosis of activated T cells (Annexin V/PI, 48 h, with cross-linker), donor N084, ratio block 1.1:1” value turned out to be 0.328 µg/mL; the “EC50 15A7H, single treatment; apoptosis of activated T cells (Annexin V/PI, 48 h, with cross-linker), donor N084, ratio block 3.3:1” value turned out to be 0.328 µg/mL; the “EC50 15A7H, single treatment; apoptosis of activated T cells (Annexin V/PI, 48 h, with cross-linker), donor N089, ratio block 1.1:1” value was 0.816 µg/mL; the “EC50 15A7H, single treatment; apoptosis of activated T cells (Annexin V/PI, 48 h, with cross-linker), donor N089, ratio block 3.3:1” value came out at 0.865 µg/mL. For the same molecule, the “EC50 15A7H, single treatment; apoptosis of activated T cells (Annexin V/PI, 48 h, with cross-linker), donor N102, ratio block 0.37:1” value stood at 0.959 µg/mL; the “EC50 15A7H, single treatment; apoptosis of activated T cells (Annexin V/PI, 48 h, with cross-linker), donor N102, ratio block 1.1:1” value came out at 0.959 µg/mL; the “EC50 15A7H, single treatment; apoptosis of activated T cells (Annexin V/PI, 48 h, with cross-linker), donor N102, ratio block 3.3:1” value was 0.959 µg/mL; the “EC50 15A7H, single treatment; apoptosis of activated T cells (Annexin V/PI, 48 h, with cross-linker), donor N103, ratio block 0.37:1” value turned out to be 1.4 µg/mL. Also, the “EC50 15A7H, single treatment; apoptosis of activated T cells (Annexin V/PI, 48 h, with cross-linker), donor N103, ratio block 1.1:1” value came out at 1.4 µg/mL and the “EC50 15A7H, single treatment; apoptosis of activated T cells (Annexin V/PI, 48 h, with cross-linker), donor N103, ratio block 3.3:1” value was 1.4 µg/mL.

The record behind these values is patent US20230149544A1 (ALTRUBIO, published 2023).
